Experimental findings from patent US20220282217A1 (BIONTECH US, published 2022) are described below.

B1: IMSLWGLVS (peptide)
peptide: IMSLWGLVS
notes: also called NAB: STAT6 (variant 1 of Chmielecki et al.)
B2: … (peptide)
peptide: LQMDFLVHPA
notes: likely a print error; also called APC, VHPA

One experiment addresses T1, HLA class I molecule A02.01.
T1 construct: Purified MHC class I complex; also called HLA-A02:01
Kind of experiment: pMHC-I dissociation half-life, 125I-b2m. The procedure: (§1) Briefly, synthetic genes encoding biotinylated MHC-I heavy and light chains are expressed in E. coli and purified from inclusion bodies using standard methods. […] These reactions are carried out in streptavidin coated microplates to bind the biotinylated MHC-I heavy chains to the surface and allow measurement of radiolabeled light chain to monitor complex formation. Dissociation is initiated by addition of higher concentrations of unlabeled light-chain and incubation at 37° C. Stability is defined as the length of time in hours it takes for half of the complexes to dissociate, as measured by scintillation counts.
For the molecule KITEQEKDFL (also called PIK3CA, E542K), the “Stability (T1/2 (h))” value was 0 h.
For the molecule IIIEYCFYG (also called PDGFRa, T674I), the “Stability (T1/2 (h))” value worked out at 1.2 h.
The same measure, in the same setting: the value for YIIIEYCFYG (also called PDGFRa, T674I) was 0 h; that for AFSGEYIPTV (also called RAC1, P29S) was 0 h.
Same read-out and setting: the value for IANLLGACTI (also called KIT, V654A) was 0 h; that for LLSTPPLSPS (also called MYC, P57S) was 0 h.
The same measure, in the same setting: the value for LQEFDVQEAL (also called NDRG1: ERG) was 0 h; that for FELLPIPPL (also called MYC, T58I) was 0 h.
In the case of TIGGPTLVII (also called KIT, T670I), the “Stability (T1/2 (h))” value amounted to 0 h.
As for MNIANLLGA (also called KIT, V654A), the “Stability (T1/2 (h))” value came to 0.3 h.
Same read-out and setting: the value for QQSDLQPPA (also called MYC, E39D) was 0 h; that for B1 was 0 h.
Same read-out and setting: the value for SLYIVGFYGA (also called MEK, P124L) was 0.4 h.
Same read-out and setting: the value for QQQSDLQPPA (also called MYC, E39D) was 0 h.
Turning to LLQEFDVQEA (also called NDRG1: ERG), the “Stability (T1/2 (h))” value stood at 2.5 h.
Take ALSASNSCFI (also called FRG1B, L52S): the “Stability (T1/2 (h))” value is 0.8 h.
The same measure, in the same setting: the value for QTGVMICAYL (also called PTEN, R130Q) was 0 h; that for FSGEYIPTV (also called RAC1, P29S) was 6.8 h.
The same measure, in the same setting: the value for YLGNHMNIAN (also called KIT, V654A) was 0 h.
On the same count and under the same terms, the value for IIEYCCYGDL (also called KIT, T670I) was 0 h; that for IIEYCFYGDL (also called PDGFRa, T674I) was 0 h; that for HMNIANLLGA (also called KIT, V654A) was 0 h.
As for VLHESNSPYI (also called MEK, C121S), the “Stability (T1/2 (h))” value stood at 1.9 h.
In the case of FQNGKMALS (also called FRG1B, L52S), the “Stability (T1/2 (h))” value is 0 h.
Turning to SLYIVGFYG (also called MEK, P124L), the “Stability (T1/2 (h))” value was found to be 0 h.
On the same count and under the same terms, the value for LLPIPPLSPS (also called MYC, T58I) was 0 h; that for VIIEYCCYG (also called KIT, T670I) was 0.5 h; that for VMAYVMAGV (also called HER2, G776insYVMA) was 16.5 h.

The target in another experiment is HLA-A02.01 (human). The experiment in a line: pMHC-I complex dissociation at 37 C, 125I-b2m, half-life. The procedure: as §1
For CLADVLLSV (also called APC, AVEW), the “Stability (T1/2 (h))” value is 24 h.
Still for that read-out and setting: the value for FILMELMAGG (also called ALK, L1196M) was 0 h.
Same read-out and setting: the value for KVLQMDFLV (also called APC, VHPA) was 6.4 h.
Still for that read-out and setting: the value for B2 was 1.5 h; that for ILMELMAGGD (also called ALK, L1196M) was 0 h.
As to VLLSVHLIV (also called APC, AVEW), the “Stability (T1/2 (h))” value stood at 11 h.

Another experiment addresses T2, HLA-A02.01 (human).
T2 construct: Purified class I MHC
Kind of experiment: competition with radiolabeled reference peptide, purified MHC I. On the procedure:
(§2) Peptides were incubated at varying concentrations with these complexes for 2 days, and the amount of remaining radiolabeled peptide bound to […] was measured using size exclusion gel-filtration.
For VMSDTTYKI (also called TTK(-1)), the IC50 stood at 19.6 nM.
The same measure, in the same setting: the value for FVMSDTTYKI (also called TTK(-1)) was 62.4 nM; that for SLVRLSSCV (also called TGFBR2(-1)) was 29.9 nM.
On the same count and under the same terms, the value for FALCGFWQI (also called SLC35F5(-1)) was 0.4 nM.
Still for that read-out and setting: the value for KKLMLLRLNL (also called SEC31A(-1)) was 289 nM; that for YLTKWPKFFL (also called XPOT(-1)) was 42.9 nM.
For RLSSCVPVAL (also called TGFBR2(-1)), the IC50 was 54.2 nM.
Same read-out and setting: the value for FVQGKDWGL (also called SPOP, F133L) was 34 nM; that for LVRLSSCVPV (also called TGFBR2(-1)) was 1240 nM; that for ALMSAMTTS (also called TGFBR2(-1)) was 139 nM.
For KSLVRLSSCV (also called TGFBR2(-1)), the IC50 came out at 280 nM.
Still for that read-out and setting: the value for VRLSSCVPVA (also called TGFBR2(-1)) was 1210 nM.

A further experiment addresses T3, HLA-A03.01 (human).
T3 construct: Purified class I MHC
The description is as above. On the procedure:
as §2
LMLLRLNLRK (also called SEC31A(-1)) displayed an IC50 of 6 nM.
Still for that read-out and setting: the value for WSLKKVPALK (also called SMAP1(-1)) was 94.9 nM.
On the same count and under the same terms, the value for ITTVKATETK (also called SEC63 (+1)) was 1250 nM; that for MLLRLNLRK (also called SEC31A(-1)) was 1.3 nM.
Still for that read-out and setting: the value for TYTCAITTVK (also called SEC63 (+1)) was 2360 nM; that for KSRQNHLQLK (also called SMAP1(-1)) was 4.7 nM.
On to KLMLLRLNLR (also called SEC31A(-1)), for which the IC50 amounted to 48.4 nM.
Still for that read-out and setting: the value for KSKKKETFKK (also called SEC63 (+1)) was 39.6 nM; that for KSKKKETFK (also called SEC63 (+1)) was 74.3 nM.

A further experiment addresses T1, HLA class I molecule A02.01. Kind of experiment: competition with radiolabeled reference peptide on purified MHC I. The procedure: as §2
Molecule KITEQEKDFL (also called PIK3CA, E542K) had an IC50 of 1400 nM.
On the same count and under the same terms, the value for IIIEYCFYG (also called PDGFRa, T674I) was 16 nM.
Same read-out and setting: the value for YIIIEYCFYG (also called PDGFRa, T674I) was 113 nM; that for AFSGEYIPTV (also called RAC1, P29S) was 781 nM.
Same read-out and setting: the value for IANLLGACTI (also called KIT, V654A) was 6420 nM.
For LLSTPPLSPS (also called MYC, P57S), the IC50 was determined as 1770 nM.
On the same count and under the same terms, the value for LQEFDVQEAL (also called NDRG1: ERG) was 50300 nM; that for FELLPIPPL (also called MYC, T58I) was 553 nM.
On the same count and under the same terms, the value for TIGGPTLVII (also called KIT, T670I) was 10700 nM; that for MNIANLLGA (also called KIT, V654A) was 128 nM.
On the same count and under the same terms, the value for QQSDLQPPA (also called MYC, E39D) was 70 nM.
B1: the IC50 is 7320 nM.
The same measure, in the same setting: the value for SLYIVGFYGA (also called MEK, P124L) was 390 nM.
Still for that read-out and setting: the value for QQQSDLQPPA (also called MYC, E39D) was 646 nM; that for LLQEFDVQEA (also called NDRG1: ERG) was 45 nM.
Still for that read-out and setting: the value for ALSASNSCFI (also called FRG1B, L52S) was 226 nM.
QTGVMICAYL (also called PTEN, R130Q) yielded an IC50 of 9760 nM.
With FSGEYIPTV (also called RAC1, P29S), the IC50 came out at 3 nM.
The same measure, in the same setting: the value for YLGNHMNIAN (also called KIT, V654A) was 1340 nM.
IIEYCCYGDL (also called KIT, T670I) showed an IC50 of 7310 nM.
The same measure, in the same setting: the value for IIEYCFYGDL (also called PDGFRa, T674I) was 1090 nM.
For HMNIANLLGA (also called KIT, V654A), the concentration for half-maximal inhibition (IC50) is 430 nM.
The same measure, in the same setting: the value for VLHESNSPYI (also called MEK, C121S) was 131 nM; that for FQNGKMALS (also called FRG1B, L52S) was 3280 nM; that for SLYIVGFYG (also called MEK, P124L) was 1060 nM.
For VIIEYCCYG (also called KIT, T670I), the IC50 was found to be 191 nM.
In turn, VMAYVMAGV (also called HER2, G776insYVMA) had an IC50 of 2 nM.

The target in another experiment is HLA-A02.01 (human). Kind of experiment: competition vs radiolabeled reference peptide on purified MHC I, gel filtration. The procedure: as §2
CLADVLLSV (also called APC, AVEW) came in with a half-inhibitory concentration (IC50) of 219 nM.
Same read-out and setting: the value for FILMELMAGG (also called ALK, L1196M) was 1580 nM; that for KVLQMDFLV (also called APC, VHPA) was 11 nM; that for B2 was 68 nM.
In turn, ILMELMAGGD (also called ALK, L1196M) showed an IC50 of 3450 nM.
VLLSVHLIV (also called APC, AVEW): the IC50 is 72 nM.
